Experimental data: PMC9482650, “Quantitative fragmentomics allow affinity mapping of interactomes” (Nature Communications, 2022)

T1: CARD11, Q9BXL7
T1 sequence (Q9BXL7 662-765, limits assumed, looked up): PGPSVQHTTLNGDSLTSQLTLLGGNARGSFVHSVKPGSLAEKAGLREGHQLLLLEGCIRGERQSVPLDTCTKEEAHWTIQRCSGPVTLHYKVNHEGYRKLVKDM

T2: GRIP1_2, Q9Y3R0
T2 sequence (Q9Y3R0 145-248, limits assumed, looked up): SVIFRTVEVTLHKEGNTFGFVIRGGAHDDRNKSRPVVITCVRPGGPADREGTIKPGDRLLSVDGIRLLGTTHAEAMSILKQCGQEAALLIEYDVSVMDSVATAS

T3: HTRA4, P83105
T3 sequence (P83105 378-476, limits assumed, looked up): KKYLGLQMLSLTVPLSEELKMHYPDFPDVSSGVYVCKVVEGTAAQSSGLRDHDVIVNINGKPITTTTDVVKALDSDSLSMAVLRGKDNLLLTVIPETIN

T4: NHERF3_3, Q5T2W1
T4 sequence (Q5T2W1 238-333, limits assumed, looked up): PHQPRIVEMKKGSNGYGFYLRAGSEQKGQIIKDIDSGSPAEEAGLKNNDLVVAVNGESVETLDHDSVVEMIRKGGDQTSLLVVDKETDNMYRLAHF

T5: NHERF3_4, Q5T2W1
T5 sequence (Q5T2W1 373-468, limits assumed, looked up): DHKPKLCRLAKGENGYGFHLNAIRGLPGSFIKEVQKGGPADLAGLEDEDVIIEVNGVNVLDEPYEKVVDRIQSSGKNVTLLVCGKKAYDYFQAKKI

T6: PDZD2_2, O15018
T6 sequence (O15018 329-429, limits assumed, looked up): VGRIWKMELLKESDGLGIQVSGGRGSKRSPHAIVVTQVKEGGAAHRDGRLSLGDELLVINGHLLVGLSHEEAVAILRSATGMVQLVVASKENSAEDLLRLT

T7: SIPA1L2, Q9P2F8
T7 sequence (Q9P2F8 945-1036, limits assumed, looked up): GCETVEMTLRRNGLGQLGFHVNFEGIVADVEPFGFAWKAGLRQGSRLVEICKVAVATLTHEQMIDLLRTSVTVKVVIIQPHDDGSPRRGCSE

T8: SNTA1, Q13424
T8 sequence (Q13424 82-180, limits assumed, looked up): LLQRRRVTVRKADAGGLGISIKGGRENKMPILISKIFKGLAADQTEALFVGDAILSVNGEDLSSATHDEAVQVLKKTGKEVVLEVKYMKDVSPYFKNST

T9: SNTG1, Q9NSN8
T9 sequence (Q9NSN8 52-150, limits assumed, looked up): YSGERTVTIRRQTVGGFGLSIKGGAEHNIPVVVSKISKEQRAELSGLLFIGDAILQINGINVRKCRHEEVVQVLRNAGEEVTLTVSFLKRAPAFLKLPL

T10: TJP3_3, O95049
T10 sequence (O95049 375-456, limits assumed, looked up): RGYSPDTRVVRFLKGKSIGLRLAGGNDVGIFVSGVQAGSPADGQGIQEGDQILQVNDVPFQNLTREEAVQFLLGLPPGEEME


Tests used:
Experiment in all cases: holdup assay
Design in all cases: key: below the threshold = too weak to quantify, mostly under pKd 3.1 to 4
Settings in all cases: plain residues with an end cap or a label only (N-terminal biotin on a linker: ado-ado)
CARD11, Q9BXL7 = molecular target: T1, CARD11, Q9BXL7
CASK, O14936 = molecular target: CASK, O14936
DLG2_2, Q15700 = molecular target: DLG2_2, Q15700
FRMPD2_1, Q68DX3 = molecular target: FRMPD2_1, Q68DX3
GOPC, Q9HD26 = molecular target: GOPC, Q9HD26
GRIP1_2, Q9Y3R0 = molecular target: T2, GRIP1_2, Q9Y3R0
GRIP2_3, Q9C0E4 = molecular target: GRIP2_3, Q9C0E4
GRIP2_4, Q9C0E4 = molecular target: GRIP2_4, Q9C0E4
HTRA1, Q92743 = molecular target: HTRA1, Q92743
HTRA4, P83105 = molecular target: T3, HTRA4, P83105
Inadl_5, Q8NI35 = molecular target: Inadl_5, Q8NI35
Inadl_6, Q8NI35 = molecular target: Inadl_6, Q8NI35
LDB3, O75112 = molecular target: LDB3, O75112
LNX1_3, Q8TBB1 = molecular target: LNX1_3, Q8TBB1
MAGI2_3, Q86UL8 = molecular target: MAGI2_3, Q86UL8
MAGI2_4, Q86UL8 = molecular target: MAGI2_4, Q86UL8
MAGI2_5, Q86UL8 = molecular target: MAGI2_5, Q86UL8
MAST1, Q9Y2H9 = molecular target: MAST1, Q9Y2H9
NHERF3_3, Q5T2W1 = molecular target: T4, NHERF3_3, Q5T2W1
NHERF3_4, Q5T2W1 = molecular target: T5, NHERF3_4, Q5T2W1
NHERF4_2, Q86UT5 = molecular target: NHERF4_2, Q86UT5
PDZD2_2, O15018 = molecular target: T6, PDZD2_2, O15018
PICK1, Q9NRD5 = molecular target: PICK1, Q9NRD5
PTPN3, P26045 = molecular target: PTPN3, P26045
SCRIB_2, Q14160 = molecular target: SCRIB_2, Q14160
SIPA1L2, Q9P2F8 = molecular target: T7, SIPA1L2, Q9P2F8
SNTA1, Q13424 = molecular target: T8, SNTA1, Q13424
SNTG1, Q9NSN8 = molecular target: T9, SNTG1, Q9NSN8
TJP3_3, O95049 = molecular target: T10, TJP3_3, O95049

Sequence of GRIP2_3, Q9C0E4 (Q9C0E4 238-339): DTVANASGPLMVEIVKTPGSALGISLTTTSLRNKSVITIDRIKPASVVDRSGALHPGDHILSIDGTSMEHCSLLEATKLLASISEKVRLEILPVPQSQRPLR
Sequence of Inadl_5, Q8NI35 (Q8NI35 673-780): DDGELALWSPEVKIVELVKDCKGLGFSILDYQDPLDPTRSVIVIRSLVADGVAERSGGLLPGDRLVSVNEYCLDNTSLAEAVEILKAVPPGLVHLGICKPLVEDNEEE
Sequence of MAGI2_3, Q86UL8 (Q86UL8 600-682): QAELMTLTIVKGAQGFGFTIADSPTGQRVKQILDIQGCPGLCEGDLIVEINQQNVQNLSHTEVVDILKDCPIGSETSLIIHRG
Sequence of PTPN3, P26045 (P26045 505-587): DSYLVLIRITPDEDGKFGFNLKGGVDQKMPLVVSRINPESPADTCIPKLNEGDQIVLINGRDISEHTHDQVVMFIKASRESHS
Sequence of NHERF4_2, Q86UT5 (Q86UT5 220-308): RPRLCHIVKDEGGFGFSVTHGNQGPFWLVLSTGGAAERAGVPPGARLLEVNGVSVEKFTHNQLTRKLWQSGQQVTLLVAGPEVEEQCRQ
Sequence of MAGI2_4, Q86UL8 (Q86UL8 772-865): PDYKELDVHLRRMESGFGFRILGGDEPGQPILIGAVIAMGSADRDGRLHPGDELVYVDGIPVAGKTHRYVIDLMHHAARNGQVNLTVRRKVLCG
Sequence of GRIP2_4, Q9C0E4 (Q9C0E4 446-548): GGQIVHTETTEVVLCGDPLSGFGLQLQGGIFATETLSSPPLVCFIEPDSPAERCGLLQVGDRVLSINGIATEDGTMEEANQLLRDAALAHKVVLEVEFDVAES
Sequence of MAGI2_5, Q86UL8 (Q86UL8 915-1017): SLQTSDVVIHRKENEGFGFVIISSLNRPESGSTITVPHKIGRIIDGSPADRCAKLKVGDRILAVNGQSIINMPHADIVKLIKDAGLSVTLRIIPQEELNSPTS
Sequence of CASK, O14936 (O14936 487-570): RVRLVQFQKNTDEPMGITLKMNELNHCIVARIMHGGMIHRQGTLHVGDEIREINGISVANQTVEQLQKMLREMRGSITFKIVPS
Sequence of LDB3, O75112 (O75112 1-94): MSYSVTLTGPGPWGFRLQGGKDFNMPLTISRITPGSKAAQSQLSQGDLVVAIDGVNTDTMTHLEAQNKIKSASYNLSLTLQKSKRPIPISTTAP
Sequence of HTRA1, Q92743 (Q92743 360-477): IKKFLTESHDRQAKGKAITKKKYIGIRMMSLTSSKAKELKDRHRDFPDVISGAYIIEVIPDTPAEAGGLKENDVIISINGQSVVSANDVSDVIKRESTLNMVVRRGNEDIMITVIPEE
Sequence of MAST1, Q9Y2H9 (Q9Y2H9 962-1065): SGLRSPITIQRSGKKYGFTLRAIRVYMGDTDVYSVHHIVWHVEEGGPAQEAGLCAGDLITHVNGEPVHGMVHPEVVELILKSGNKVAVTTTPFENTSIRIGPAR
Sequence of Inadl_6, Q8NI35 (Q8NI35 1058-1167): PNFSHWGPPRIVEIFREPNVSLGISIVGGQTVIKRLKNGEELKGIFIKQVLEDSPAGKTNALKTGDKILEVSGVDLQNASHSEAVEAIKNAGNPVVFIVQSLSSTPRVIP
Sequence of LNX1_3, Q8TBB1 (Q8TBB1 500-596): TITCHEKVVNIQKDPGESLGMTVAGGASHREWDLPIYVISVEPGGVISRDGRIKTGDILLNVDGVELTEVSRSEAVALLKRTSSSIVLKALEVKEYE
Sequence of DLG2_2, Q15700 (Q15700 189-283): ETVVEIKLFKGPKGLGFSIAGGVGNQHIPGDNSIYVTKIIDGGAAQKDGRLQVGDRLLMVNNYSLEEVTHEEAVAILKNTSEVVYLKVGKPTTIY
Sequence of FRMPD2_1, Q68DX3 (Q68DX3 770-861): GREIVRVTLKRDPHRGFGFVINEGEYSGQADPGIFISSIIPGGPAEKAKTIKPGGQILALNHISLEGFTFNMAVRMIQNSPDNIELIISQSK
Sequence of PICK1, Q9NRD5 (Q9NRD5 17-115): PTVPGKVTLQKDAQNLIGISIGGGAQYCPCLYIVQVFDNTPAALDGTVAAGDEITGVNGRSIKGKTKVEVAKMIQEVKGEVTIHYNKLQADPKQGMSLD
Sequence of SCRIB_2, Q14160 (Q14160 857-960): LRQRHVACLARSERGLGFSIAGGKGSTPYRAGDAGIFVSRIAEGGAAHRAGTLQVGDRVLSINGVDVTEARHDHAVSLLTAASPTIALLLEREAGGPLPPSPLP

| Binder | pKd (CARD11, Q9BXL7) | pKd (CASK, O14936) | pKd (DLG2_2, Q15700) | pKd (FRMPD2_1, Q68DX3) | pKd (GOPC, Q9HD26) | pKd (GRIP1_2, Q9Y3R0) | pKd (GRIP2_3, Q9C0E4) | pKd (GRIP2_4, Q9C0E4) | pKd (HTRA1, Q92743) | pKd (HTRA4, P83105) | pKd (Inadl_5, Q8NI35) | pKd (Inadl_6, Q8NI35) | pKd (LDB3, O75112) | pKd (LNX1_3, Q8TBB1) | pKd (MAGI2_3, Q86UL8) | pKd (MAGI2_4, Q86UL8) | pKd (MAGI2_5, Q86UL8) | pKd (MAST1, Q9Y2H9) | pKd (NHERF3_3, Q5T2W1) | pKd (NHERF3_4, Q5T2W1) | other results |
| --- | --- | --- | --- | --- | --- | --- | --- | --- | --- | --- | --- | --- | --- | --- | --- | --- | --- | --- | --- | --- | --- |
| THREVKFTSL [CD46, P15529] | below the threshold | below the threshold | 3.57 | below the threshold | 4.05 | below the threshold | below the threshold | below the threshold | 3.89 | below the threshold | below the threshold | 3.7 | below the threshold | below the threshold | below the threshold | below the threshold | 3.84 | 4.81 | below the threshold | 4.6 | pKd (NHERF4_2, Q86UT5): below the threshold; pKd (PDZD2_2, O15018): 4.26; pKd (PICK1, Q9NRD5): 4.08; pKd (PTPN3, P26045): 4.83; pKd (SCRIB_2, Q14160): 3.67; pKd (SIPA1L2, Q9P2F8): below the threshold; pKd (SNTA1, Q13424): 4.17; pKd (SNTG1, Q9NSN8): below the threshold; pKd (TJP3_3, O95049): below the threshold |
| HDDYFYHDEL [RCN2, Q14257] | below the threshold | below the threshold | below the threshold | below the threshold | 3.59 | below the threshold | below the threshold | below the threshold | 3.98 | below the threshold | below the threshold | below the threshold | 4.09 | below the threshold | below the threshold | below the threshold | below the threshold | 4.35 | below the threshold | below the threshold | pKd (NHERF4_2, Q86UT5): below the threshold; pKd (PDZD2_2, O15018): below the threshold; pKd (PICK1, Q9NRD5): below the threshold; pKd (PTPN3, P26045): below the threshold; pKd (SCRIB_2, Q14160): below the threshold; pKd (SIPA1L2, Q9P2F8): below the threshold; pKd (SNTA1, Q13424): 3.6; pKd (SNTG1, Q9NSN8): below the threshold; pKd (TJP3_3, O95049): below the threshold |
| QKNKDREYYV [NRXN3, Q9HDB5] | below the threshold | 3.55 | below the threshold | 3.7 | below the threshold | below the threshold | below the threshold | below the threshold | 5.49 | below the threshold | 4.64 | below the threshold | below the threshold | 4.09 | below the threshold | 3.8 | below the threshold | below the threshold | below the threshold | below the threshold | pKd (NHERF4_2, Q86UT5): below the threshold; pKd (PDZD2_2, O15018): 4.56; pKd (PICK1, Q9NRD5): below the threshold; pKd (PTPN3, P26045): 4.37; pKd (SCRIB_2, Q14160): below the threshold; pKd (SIPA1L2, Q9P2F8): below the threshold; pKd (SNTA1, Q13424): 3.8; pKd (SNTG1, Q9NSN8): 3.58; pKd (TJP3_3, O95049): 3.98 |
| KKTPVSRSHL [SLC22A3, O75751] | below the threshold | below the threshold | below the threshold | below the threshold | 3.81 | below the threshold | below the threshold | below the threshold | 3.61 | 3.81 | below the threshold | below the threshold | below the threshold | below the threshold | below the threshold | below the threshold | below the threshold | below the threshold | below the threshold | below the threshold | pKd (NHERF4_2, Q86UT5): below the threshold; pKd (PDZD2_2, O15018): below the threshold; pKd (PICK1, Q9NRD5): below the threshold; pKd (PTPN3, P26045): below the threshold; pKd (SCRIB_2, Q14160): below the threshold; pKd (SIPA1L2, Q9P2F8): 3.53; pKd (SNTA1, Q13424): 3.53; pKd (SNTG1, Q9NSN8): below the threshold; pKd (TJP3_3, O95049): below the threshold |
| KAEEKPPSKV [SCN4B, Q8IWT1] | below the threshold | below the threshold | below the threshold | below the threshold | below the threshold | below the threshold | below the threshold | below the threshold | below the threshold | 3.93 | below the threshold | below the threshold | below the threshold | below the threshold | 3.48 | below the threshold | 3.51 | 3.69 | below the threshold | below the threshold | pKd (NHERF4_2, Q86UT5): 3.49; pKd (PDZD2_2, O15018): 3.95; pKd (PICK1, Q9NRD5): 4.21; pKd (PTPN3, P26045): below the threshold; pKd (SCRIB_2, Q14160): below the threshold; pKd (SIPA1L2, Q9P2F8): below the threshold; pKd (SNTA1, Q13424): below the threshold; pKd (SNTG1, Q9NSN8): below the threshold; pKd (TJP3_3, O95049): below the threshold |
